Assay results from publication PMC6778850, “The flavin mononucleotide cofactor in α-hydroxyacid oxidases exerts its electrophilic/nucleophilic duality in control of the substrate-oxidation level” (Acta Crystallographica. Section D, Structural Biology, 2019).

Biological target: the molecule itself
Test: SEC; analytical gel filtration on a Superdex 200 16/20 column; 5-deaza-FMN-reconstituted protein after the refolding process; self-association (tetramer)

Protein | stoichiometry N
p-hydroxymandelate oxidase (Hmo), 5-deaza-FMN-containing (enzyme, Amycolatopsis orientalis, p-hydroxymandelate oxidase (Hmo), product of the hmo gene (orf22) amplified from Amycolatopsis orientalis genomic DNA, cloned in pET-28a(+); no removal of the His6 tag is described; also called 5-deaza-Hmo; wild-type Hmo; source: E. coli BL21(DE3), purified (Ni-NTA, gel filtration); deflavinated and reconstituted with 5-deaza-FMN on an Ni-NTA column) MTYVSLADLERAARDVLPGEIFDFLAGGSGTEASLVANRTALERVFVIPRMLRDLTDVTTEIDIFGRRAALPMAVAPVAYQRLFHPEGELAVARAARDAGVPYTICTLSSVSLEEIAAVGGRPWFQLYWLRDEKRSLDLVRRAEDAGCEAIVFTVDVPWMGRRLRDMRNGFALPEWVTAANFDAGTAAHRRTQGVSAVADHTAREFAPATWESVEAVRAHTDLPVVLKGILAVEDARRAVDAGAGGIVVSNHGGRQLDGAVPGIEMLGEIVAAVSGGCEVLVDGGIRSGGDVLKATALGASAVLVGRPVMWALAAAGQDGVRQLLELLAEEVRDAMGLAGCESVGAARRLNTKLGVV | 4
p-hydroxymandelate oxidase (Hmo) Y128F mutant, 5-deaza-FMN-containing (enzyme, Amycolatopsis orientalis, p-hydroxymandelate oxidase (Hmo), product of the hmo gene (orf22) of Amycolatopsis orientalis, point mutant Y128F made with QuikChange; no removal of the His6 tag is described; source: E. coli BL21(DE3), purified (same protocol as wild-type Hmo); deflavinated and reconstituted with 5-deaza-FMN on an Ni-NTA column) MTYVSLADLERAARDVLPGEIFDFLAGGSGTEASLVANRTALERVFVIPRMLRDLTDVTTEIDIFGRRAALPMAVAPVAYQRLFHPEGELAVARAARDAGVPYTICTLSSVSLEEIAAVGGRPWFQLFWLRDEKRSLDLVRRAEDAGCEAIVFTVDVPWMGRRLRDMRNGFALPEWVTAANFDAGTAAHRRTQGVSAVADHTAREFAPATWESVEAVRAHTDLPVVLKGILAVEDARRAVDAGAGGIVVSNHGGRQLDGAVPGIEMLGEIVAAVSGGCEVLVDGGIRSGGDVLKATALGASAVLVGRPVMWALAAAGQDGVRQLLELLAEEVRDAMGLAGCESVGAARRLNTKLGVV | 4
